Results on 35 molecules are retold here after patent US20120219562A1 (AbbVie / Abbott, published 2012).

B1: M2 F1 (antibody, V domains shown)
VH: QVQLVQSGGGVVQPGRSLRLSCAASGFTFSSYGMHWVRQAPGKGLEWVAFIRYDGSNKYYADSVKGRFTISRDNSKNTLYLQMKSLRAEDTAVYYCKTHGSHDNWGQGTMVTVSS
VL: SYVLTQPPSVSGTPGQRVTISCSGGRSNIGSNTVKWYQQLPGTAPKLLIYGNDQRPSGVPDRFSGSKSGTSASLAITGVQAEDEADYYCQSYDSDVTGSRVFGTGTKVTVLG
B2: 73-H2 (antibody, V domains shown)
VH: B1 VH with K97T, H99S, H102Y, N104Y
VL: B1 VL with D95G, V96F
B3: M2 D1 (antibody, V domains shown)
VH: B1 VH
VL: B1 VL with S94I, D95R, V96F
B4: C2 (antibody, V domains shown)
VH: B1 VH
VL: SYVLTQPPSVSGTPGQRVTISCSGGRSNIGSNTVKWYQQLPGTAPKLLIYGNDQRPSGVPDRFSGSKSGTSASLAITGVQAEDEADYYCQSYDRGLNPSATFGTGTKVTVL
B5: A8 (antibody, V domains shown)
VH: B1 VH
VL: B4 VL with L96K, N97S, P98N, S99K, A100M, T101L
B6: M2 D4 (antibody, V domains shown)
VH: B1 VH
VL: B1 VL with D93E, S94T, D95S, V96F
B7: 73-H3 (antibody, V domains shown)
VH: B1 VH with K97T, H99S, H102Y, N104Y
VL: B1 VL with Q90H, S94N, D95G, V96F
B8: M2 D5 (antibody, V domains shown)
VH: B1 VH
VL: B1 VL with D95S, V96S
B9: M2 C5 (antibody, V domains shown)
VH: B1 VH
VL: B1 VL with S94T, D95A, V96L
B10: M2 B3 (antibody, V domains shown)
VH: B1 VH
VL: B1 VL with S94I, D95G, V96M
B11: M2 D2 (antibody, V domains shown)
VH: B1 VH
VL: B1 VL with S94I, D95R, V96S
B12: B6 (antibody, V domains shown)
VH: B1 VH
VL: B4 VL with R94S, L96S, N97L, P98R, S99R, A100I, T101L
B13: M2 E2 (antibody, V domains shown)
VH: B1 VH
VL: B4 VL with R94N, L96F, N97T, P98G, A100R, T101V
B14: M2 D3 (antibody, V domains shown)
VH: B1 VH
VL: B1 VL with S94N, D95R, V96L
B15: M2 E1 (antibody, V domains shown)
VH: B1 VH
VL: B1 VL with S91T, S94K, D95G, V96F, R100S
B16: 73-F6 (antibody, V domains shown)
VH: B1 VH with K97T, H99S, H102Y, N104Y
VL: B1 VL with Q90H, S94M, D95G, V96F
B17: M2 H5 (antibody, V domains shown)
VH: B1 VH
VL: B1 VL with S94A, D95G, V96F
B18: 43-E9 (antibody, V domains shown)
VH: B1 VH
VL: B1 VL with S94R, D95G, V96T, T97I, G98P, R100I, V101E
B19: C10 (antibody, V domains shown)
VH: B1 VH
VL: B1 VL with S94R, D95G, V96N, T97S, G98P, S99I, R100P, V101T
B20: M2 B6 (antibody, V domains shown)
VH: B1 VH
VL: B4 VL with N97T, P98A, A100R, T101V
B21: M2 D6 (antibody, V domains shown)
VH: B1 VH
VL: B1 VL with D95G, V96F, G98A
B22: M2 B5 (antibody, V domains shown)
VH: B1 VH
VL: B1 VL with D95G
B23: 73-C5 (antibody, V domains shown)
VH: B1 VH with K97T, H99S, H102Y, N104Y
VL: B1 VL with Q90H, Y92H, S94R, V96F
B24: M2 B1 (antibody, V domains shown)
VH: B1 VH
VL: B1 VL with D95G, V96L
B25: M2 E6 (antibody, V domains shown)
VH: B1 VH
VL: B1 VL with S94T, D95G, V96F, G98K
B26: 136-9 (antibody, V domains shown)
VH: B1 VH with K97T, N104D
VL: B4 VL with S91T, R94I, G95S, L96E, N97S, P98G, A100R, T101V
B27: C4 (antibody, V domains shown)
VH: B1 VH
VL: B4 VL with L96T, N97P, P98N, S99N, A100S, T101F
B28: 43-E3 (antibody, V domains shown)
VH: B1 VH
VL: B1 VL with S94R, D95G, V96S, T97H, G98P, S99A, R100A, V101E
B29: M2 A5 (antibody, V domains shown)
VH: B1 VH
VL: B1 VL with S94I, D95G, V96S
B30: M2 A2 (antibody, V domains shown)
VH: B1 VH
VL: B1 VL with S94R, D95G, V96I, T97H
B31: 73-G6 (antibody, V domains shown)
VH: B1 VH with K97T, H99S, H102Y, N104Y
VL: B1 VL with D93N, S94T, V96F
B32: SEQ ID NO: 477 (Y61, T at L30) (antibody, V domains shown)
VH: B1 VH
VL: B1 VL with S31T, S94R, D95G, V96T, T97H, G98P, S99A, R100L, V101L
B33: SEQ ID NO: 479 (Y61, D at L31) (antibody, V domains shown)
VH: B1 VH
VL: B1 VL with N32D, S94R, D95G, V96T, T97H, G98P, S99A, R100L, V101L
B34: SEQ ID NO: 478 (Y61, P at L30) (antibody, V domains shown)
VH: B1 VH
VL: B1 VL with S31P, S94R, D95G, V96T, T97H, G98P, S99A, R100L, V101L
B35: SEQ ID NO: 480 (Y61, E at L31) (antibody, V domains shown)
VH: B1 VH
VL: B1 VL with N32E, S94R, D95G, V96T, T97H, G98P, S99A, R100L, V101L

Residue numbers refer to the chain shown, from its start.

The first test concerns the target T1, human interleukin 12 (human, UniProt P29459 23-219; P29460 23-328).
T1 construct: heterodimer of p35 and p40 linked by a disulfide bridge; also called hIL-12; IL-12
T1 sequence (looked up) 1: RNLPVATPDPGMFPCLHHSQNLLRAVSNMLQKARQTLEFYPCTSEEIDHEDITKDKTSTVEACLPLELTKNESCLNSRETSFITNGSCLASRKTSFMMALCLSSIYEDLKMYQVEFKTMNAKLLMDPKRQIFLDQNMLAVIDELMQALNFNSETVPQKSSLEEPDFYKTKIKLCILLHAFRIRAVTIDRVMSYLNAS
T1 sequence (looked up) 2: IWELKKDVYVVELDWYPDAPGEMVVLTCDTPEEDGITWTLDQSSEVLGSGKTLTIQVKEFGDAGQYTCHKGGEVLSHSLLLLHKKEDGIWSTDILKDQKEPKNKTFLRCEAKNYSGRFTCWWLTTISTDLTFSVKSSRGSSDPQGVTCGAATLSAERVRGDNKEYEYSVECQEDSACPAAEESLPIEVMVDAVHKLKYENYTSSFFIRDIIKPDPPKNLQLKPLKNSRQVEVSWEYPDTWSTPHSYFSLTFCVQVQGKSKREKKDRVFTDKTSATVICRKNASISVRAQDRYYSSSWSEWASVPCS
As to the kind of experiment: SPR (BIAcore).
For B1, the koff turned out to be 0.0616 s⁻¹.
Same read-out and setting: the value for B2 was 0.00593 s⁻¹.
The same measure, in the same setting: next, B3: 0.0371 s⁻¹; B4: 0.00223 s⁻¹; B5: 0.00237 s⁻¹.
On the same count and under the same terms, the value for B6 was 0.0581 s⁻¹; that for B7 was 0.00685 s⁻¹.
B8 came in with a koff of 0.0518 s⁻¹. Against the preceding molecule, the koff is about 7.6-fold higher.
As to B9, the koff was 0.0471 s⁻¹.
The same measure, in the same setting: next, B10: 0.046 s⁻¹.
The same measure, in the same setting: next, B11: 0.0385 s⁻¹.
Still for that read-out and setting: the value for B12 was 0.00758 s⁻¹; that for B13 was 0.0477 s⁻¹.
Molecule B14 returned a koff of 0.0333 s⁻¹.
Take B15: the koff stood at 0.0532 s⁻¹. This koff is about 1.6-fold higher than that of the molecule before.
Same read-out and setting: next, B16: 0.00587 s⁻¹; B17: 0.0099 s⁻¹; B18: 0.0008 s⁻¹.
Still for that read-out and setting: the value for B19 was 0.0031 s⁻¹; that for B20 was 0.0281 s⁻¹; that for B21 was 0.0501 s⁻¹.
On the same count and under the same terms, the value for B22 was 0.00838 s⁻¹; that for B23 was 0.00484 s⁻¹.
As for B24, the koff came to 0.00797 s⁻¹.
Consider B25, for which the koff is 0.00977 s⁻¹.
Same read-out and setting: the value for B26 was 0.0032 s⁻¹.
Still for that read-out and setting: the value for B27 was 0.00323 s⁻¹; that for B28 was 0.0008 s⁻¹; that for B29 was 0.0401 s⁻¹.
Still for that read-out and setting: next, B30: 0.04 s⁻¹; B31: 0.0063 s⁻¹.

In the next test the target is T2, human interleukin 12 (p70 heterodimer of p35 and p40) (human, UniProt P29459 23-219; P29460 23-328).
T2 construct: Recombinant human IL-12; also called hIL-12; IL-12
T2 sequence (looked up) 1: T1 sequence (looked up) 1
T2 sequence (looked up) 2: T1 sequence (looked up) 2
As to the kind of experiment: SPR (BIAcore), off-rate.
In turn, B32 returned a koff of 0.000226 s⁻¹.
On the same count and under the same terms, the value for B33 was 0.00058 s⁻¹; that for B34 was 0.00025 s⁻¹.
On the same count and under the same terms, the value for B35 was 0.000384 s⁻¹.
